Drawing on PMC9729196, “An in silico method to assess antibody fragment polyreactivity” (Nature Communications, 2022), this text covers percent of parent for ten variants.

B1: AT118i4h32 / wild-type human FLAG-AT1R (angiotensin II type 1 receptor) [human] (parent complex)
chain 1: MAEVQLVESGGGLVQPGGSLRLSCAASGYIYRRYRMGWYRQAPGKGREFVAAISGGSSTNYADSVKGRFTISRDNSKNTVYLQMNSLRAEDTAVYYCAAYRIVSDPRVYWGQGTQVTVSSLE
chain 2: MILNSSTEDGIKRIQDDCPKAGRHNYIFVMIPTLYSIIFVVGIFGNSLVVIVIYFYMKLKTVASVFLLNLALADLCFLLTLPLWAVYTAMEYRWPFGNYLCKIASASVSFNLYASVFLLTCLSIDRYLAIVHPMKSRLRRTMLVAKVTCIIIWLLAGLASLPAIIHRNVFFIENTNITVCAFHYESQNSTLPIGLGLTKNILGFLFPFLIILTSYTLIWKALKKAYEIQKNKPRNDDIFKIIMAIVLFFFFSWIPHQIFTFLDVLIQLGIIRDCRIADIVDTAMPITICIAYFNNCLNPLFYGFLGKKFKRYFLQLLKYIPPKAKSHSNLSTKMSTLSYRPSDNVSSSTKKPAPCFEVE

Variants of B1 are the subject of this experiment. The experiment can be described thus: flow cytometry on cells; parent: 100; read off a plot. On the technique in general: A flow cytometer gives signals particle by particle.
As to chain 1 Y100D, the percent of parent was ~12 % of WT.
Turning to chain 1 S54V, the percent of parent is ~41 % of WT.
In the case of chain 1 R33D it was ~8 % of WT; in that of chain 1 A99H, ~3 % of WT.
In the case of chain 1 G28D, chain 1 T59I it was ~99 % of WT; in that of chain 1 R101D, ~17 % of WT.
In the case of chain 1 Y34G it was ~3 % of WT; in that of chain 1 G56F, ~54 % of WT; in that of chain 1 A98W, ~22 % of WT.
Turning to chain 1 Y31R, the percent of parent is ~48 % of WT.
